Results as given in the supplement of paper PMC7877785.
± gives the uncertainty stated by the source.

Assay: self-splicing fitness, log relative to wild type (ln ratio); higher = more splicing; Tetrahymena group I intron in knt gene, E. coli kanamycin selection, DiMSum; sequences stand for … in CUCUCU…GGAGGGAAAAGUUAUCAGGCAUGCACCUGGUAGCUAGUCUUUAAACCAAUAGAUUGCAUCGGUUUAAAAGGCAAGACCGUCAAAUUGCGGGAAAGGGGUCAACAGCCGUUCAGUACCAAGUCUCAGGGGAAACUUUGAGAUGGCCUUGCAAAGGGUAUGGUAAUAAGCUGACGGACAUGGUCCUAACCACGCAGCCAAGUCCUAAGUCAACAGAUCUUCUGUUGAUAUGGAUGCAGUUCACAGACUAAAUGUCGGUCGGGGAAGAUGUAUUCUUCUCAUAAGAUAUAGUCGGACCUCUCCUUAAUGGGAGCUAGCGGAUGAAGUGAUGCAACACUGGAGCCGCUGGGAACUAAUUUGUAUGCGAAAGUAUAUUGAUUAGUUUUGGAGUACUCGUGGUCG
Summary of the method: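 Pooled colonies went to amplicon sequencing on an Illumina HiSeq 2500 after six replicate transformations. The plates were LB agar with 100 μg/mL carbenicillin, 50 μM IPTG and 0.2% rhamnose, with or without 25 μg/mL kanamycin, incubated overnight at 37°C or 30°C. The E. coli BL21(DE3) library had all eight P1ex-region intron nucleotides randomised, the intron placed in the knt kanamycin-resistance gene on pET-22b(+). DiMSum fitness is the error-weighted combination of replicate fold changes, kanamycin against none, normalised to wild type.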

Sequence | self-splicing fitness (ln) (30 °C) | self-splicing fitness (ln) (37 °C)
ACUCAGCAAUAUUACGAUGG | -1.1 ± 0.063 | -0.87 ± 0.1
ACUCAGCAAUAUUACGCACA | -0.835 ± 0.083 | -0.539 ± 0.1
ACUCAGCAAUAUUACGCCAC | -2.88 ± 0.21 | –
ACUCAGCAAUAUUACGCCCU | -0.136 ± 0.15 | 0.51 ± 0.17
ACUCAGCAAUAUUACGCUGU | -3.46 ± 0.19 | -1.4 ± 0.17
ACUCAGCAAUAUUACGGAAG | -0.707 ± 0.088 | -0.89 ± 0.13
ACUCAGCAAUAUUACGGACU | 0.409 ± 0.086 | -0.57 ± 0.087
ACUCAGCAAUAUUACGGUAG | -3.73 ± 0.13 | -2.92 ± 0.15
ACUCAGCAAUAUUACGGUGA | -2.73 ± 0.12 | -1.23 ± 0.095
ACUCAGCAAUAUUACGUCGU | -1.42 ± 0.07 | -0.573 ± 0.081
ACUCAGCAAUAUUACGUGAC | -3.15 ± 0.14 | -0.561 ± 0.11
ACUCAGCAAUAUUACGUUUA | -1.54 ± 0.078 | -0.51 ± 0.086
ACUGAGCAAUAUUACGAAAU | -2.94 ± 0.24 | -1.72 ± 0.22
ACUGAGCAAUAUUACGAAUU | -2.97 ± 0.29 | -2.1 ± 0.24
ACUGAGCAAUAUUACGACCA | -2.57 ± 0.39 | -1.1 ± 0.28
ACUGAGCAAUAUUACGAUUC | -2.78 ± 0.5 | -1.57 ± 0.31
ACUGAGCAAUAUUACGCACG | -2.17 ± 0.15 | -1.11 ± 0.17
ACUGAGCAAUAUUACGCAGU | -2.36 ± 0.24 | -1.35 ± 0.2
ACUGAGCAAUAUUACGCAUU | -2.71 ± 0.1 | -1.29 ± 0.11

Sequence | self-splicing fitness (ln) (30 °C) | self-splicing fitness (ln) (37 °C)
ACUGAGCAAUAUUACGCCCU | -1.87 ± 0.33 | -1.05 ± 0.44
ACUGAGCAAUAUUACGCGCA | -3.04 ± 0.42 | -1.66 ± 0.36
ACUGAGCAAUAUUACGGAGA | -3.46 ± 0.21 | -3.08 ± 0.27
ACUGAGCAAUAUUACGGAUA | -3.08 ± 0.28 | -1.77 ± 0.26
ACUGAGCAAUAUUACGGCAG | -1.75 ± 0.12 | -0.311 ± 0.15
ACUGAGCAAUAUUACGGCCA | -2.43 ± 0.28 | -2.07 ± 0.33
ACUGAGCAAUAUUACGGUAG | -3.12 ± 0.18 | -1.03 ± 0.21
ACUGAGCAAUAUUACGGUCA | -3.09 ± 0.21 | -1.51 ± 0.15
ACUGAGCAAUAUUACGGUUA | -2.56 ± 0.21 | -1.9 ± 0.17
ACUGAGCAAUAUUACGUAAC | -4.25 ± 0.25 | -3.36 ± 0.3
ACUGAGCAAUAUUACGUAAG | -2.02 ± 0.086 | -0.834 ± 0.1
ACUGAGCAAUAUUACGUAGG | -2.14 ± 0.14 | -1.27 ± 0.18
ACUGAGCAAUAUUACGUCAA | -3.09 ± 0.23 | -2.31 ± 0.19
ACUGAGCAAUAUUACGUCGU | -2.87 ± 0.16 | -1.96 ± 0.14
ACUGAGCAAUAUUACGUGCG | -3 ± 0.13 | -1.28 ± 0.11
ACUUAGCAAUAUUACGAACA | -1.35 ± 0.2 | -0.724 ± 0.19
ACUUAGCAAUAUUACGAAGG | -2.08 ± 0.12 | -1.33 ± 0.17
ACUUAGCAAUAUUACGACGG | -0.755 ± 0.081 | -0.0301 ± 0.11
ACUUAGCAAUAUUACGAGCU | -0.379 ± 0.099 | -0.0037 ± 0.14
